Laboratory results taken from publication PMC6094050, “O-GlcNAcylation Signal Mediates Proteasome Inhibitor Resistance in Cancer Cells by Stabilizing NRF1” (Molecular and Cellular Biology, 2018).

Biological target: T1, GST–HCF-1-C (GST fusion of the C-terminal half of human HCF-1, 1012–2036) (human, UniProt P51610 1012-2035)
T1 construct: HCF-1 (host cell factor C1), human, C-terminal half, residues 1012-2036 as printed; the printed end 2036 may count the stop codon; also called pGEX4T-1-hHCF-1-C; source: E. coli BL21(DE3), purified from soluble lysates
T1 sequence (looked up): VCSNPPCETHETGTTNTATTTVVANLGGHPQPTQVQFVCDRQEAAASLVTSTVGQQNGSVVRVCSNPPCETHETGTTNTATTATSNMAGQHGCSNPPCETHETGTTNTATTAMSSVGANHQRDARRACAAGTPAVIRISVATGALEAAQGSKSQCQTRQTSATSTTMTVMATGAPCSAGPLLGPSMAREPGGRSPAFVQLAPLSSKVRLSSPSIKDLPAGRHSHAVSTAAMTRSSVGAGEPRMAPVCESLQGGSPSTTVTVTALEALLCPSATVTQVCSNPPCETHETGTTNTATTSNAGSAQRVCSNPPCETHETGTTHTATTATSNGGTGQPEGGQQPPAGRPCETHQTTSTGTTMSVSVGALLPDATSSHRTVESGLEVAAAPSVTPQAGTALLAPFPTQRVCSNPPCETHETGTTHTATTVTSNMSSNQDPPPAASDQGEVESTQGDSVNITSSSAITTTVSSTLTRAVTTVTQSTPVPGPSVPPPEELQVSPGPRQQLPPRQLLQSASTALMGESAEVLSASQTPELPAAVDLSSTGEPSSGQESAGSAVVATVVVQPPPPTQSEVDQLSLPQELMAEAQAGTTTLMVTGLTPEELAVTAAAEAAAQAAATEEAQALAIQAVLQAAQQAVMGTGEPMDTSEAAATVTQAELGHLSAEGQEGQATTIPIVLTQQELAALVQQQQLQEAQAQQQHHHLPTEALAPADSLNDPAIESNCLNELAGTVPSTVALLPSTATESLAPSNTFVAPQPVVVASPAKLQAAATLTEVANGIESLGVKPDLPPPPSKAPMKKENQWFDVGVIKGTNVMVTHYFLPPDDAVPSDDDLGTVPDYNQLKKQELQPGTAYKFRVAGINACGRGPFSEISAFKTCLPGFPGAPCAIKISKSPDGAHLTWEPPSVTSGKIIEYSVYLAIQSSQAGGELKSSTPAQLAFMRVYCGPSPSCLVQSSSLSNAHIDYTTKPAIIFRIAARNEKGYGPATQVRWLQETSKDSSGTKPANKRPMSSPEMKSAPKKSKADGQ
Assay: pull-down; glutathione-Sepharose-immobilized GST-OGT and GST–HCF-1-C incubated with recombinant His6-tagged NRF1 fragments Fr. 1 and Fr. 2; washed extensively with PBS-T; immunoblot with anti-His6 and anti-GST
Details: both partners purified

- binding result: binds
B1: mNRF1-Neh6L-His6 (Fr. 2; 431–580) (domain or fragment, mouse, UniProt Q61985 431-580, looked up)
chain: GFNPVQASQLEEEFDSDSGLSLDSSHSPSSLSSSEGSSSSSSSSSSSSASSSASSSFSEEGAVGYSSDSETLDLEEAEGAVGYQPEYSKFCRMSYQDPSQLSCLPYLEHVGHNHTYNMAPSALDSADLPPPSTLKKGSKEKQADFLDKQM
notes: NRF1, mouse, Neh6L domain, residues 431-580; The name is printed both as NRF1-Neh6L-His6 and as His6-NRF1-Neh6L; also called His6-NRF1-Neh6L; fragment 2; source: E. coli BL21(DE3), purified (Ni-NTA agarose)
